According to the supplement of paper PMC7877785:
± gives the uncertainty stated by the source.

Experiment: self-splicing fitness, log relative to wild type (ln ratio); higher = more splicing; Tetrahymena group I intron in knt gene, E. coli kanamycin selection, DiMSum; sequences stand for … in CUCUCU…GGAGGGAAAAGUUAUCAGGCAUGCACCUGGUAGCUAGUCUUUAAACCAAUAGAUUGCAUCGGUUUAAAAGGCAAGACCGUCAAAUUGCGGGAAAGGGGUCAACAGCCGUUCAGUACCAAGUCUCAGGGGAAACUUUGAGAUGGCCUUGCAAAGGGUAUGGUAAUAAGCUGACGGACAUGGUCCUAACCACGCAGCCAAGUCCUAAGUCAACAGAUCUUCUGUUGAUAUGGAUGCAGUUCACAGACUAAAUGUCGGUCGGGGAAGAUGUAUUCUUCUCAUAAGAUAUAGUCGGACCUCUCCUUAAUGGGAGCUAGCGGAUGAAGUGAUGCAACACUGGAGCCGCUGGGAACUAAUUUGUAUGCGAAAGUAUAUUGAUUAGUUUUGGAGUACUCGUGGUCG
In short: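 Six replicate transformations of E. coli BL21(DE3) with a pET-22b(+) library were grown overnight at 37°C or 30°C. The library randomised all eight P1ex-region intron nucleotides, the intron lying in the knt kanamycin-resistance gene, and plates were LB agar with or without 25 μg/mL kanamycin plus 100 μg/mL carbenicillin, 50 μM IPTG and 0.2% rhamnose. Pooled colonies were amplicon-sequenced on an Illumina HiSeq 2500, and fitness is the DiMSum error-weighted combination of wild-type-normalised replicate fold changes, kanamycin versus none.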

Sequence | self-splicing fitness (ln) (30 °C) | self-splicing fitness (ln) (37 °C)
GCAGAGCAAUAUUACGCCCA | -1.07 ± 0.28 | -0.895 ± 0.46
GCAGAGCAAUAUUACGCGAA | -4.38 ± 0.24 | -3.44 ± 0.21
GCAGAGCAAUAUUACGCGUA | -2.94 ± 0.33 | -2.22 ± 0.25
GCAGAGCAAUAUUACGCUCA | -1.66 ± 0.15 | -0.832 ± 0.15
GCAGAGCAAUAUUACGCUUC | -3.9 ± 0.27 | -2.22 ± 0.2
GCAGAGCAAUAUUACGGAAU | -3.4 ± 0.36 | -1.51 ± 0.34
GCAGAGCAAUAUUACGGAUG | -2.76 ± 0.18 | -1.82 ± 0.22
GCAGAGCAAUAUUACGGCCG | -3.3 ± 0.24 | -2.02 ± 0.27
GCAGAGCAAUAUUACGGGAA | -2.68 ± 0.19 | -1.96 ± 0.18
GCAGAGCAAUAUUACGGGCU | -1.78 ± 0.3 | -2.03 ± 0.39
GCAGAGCAAUAUUACGGGGG | -3.1 ± 0.34 | -3.56 ± 0.39
GCAGAGCAAUAUUACGGGUC | -3.78 ± 0.47 | -2.29 ± 0.24
GCAGAGCAAUAUUACGGUAC | -2.65 ± 0.22 | -1.79 ± 0.45
GCAGAGCAAUAUUACGGUCC | -2.22 ± 0.29 | -2.05 ± 0.4
GCAGAGCAAUAUUACGUAAA | -2.76 ± 0.19 | -3.33 ± 0.42
GCAGAGCAAUAUUACGUACC | -1.95 ± 0.17 | -0.941 ± 0.19
GCAGAGCAAUAUUACGUAGU | -3.3 ± 0.28 | -3.09 ± 0.37
GCAGAGCAAUAUUACGUCCC |  | -1.04 ± 0.34
GCAGAGCAAUAUUACGUCGA |  | -1.58 ± 0.21
GCAGAGCAAUAUUACGUGGC |  | -2.09 ± 0.32
GCAGAGCAAUAUUACGUGGU | -3.94 ± 0.17 | -2.27 ± 0.18
GCAGAGCAAUAUUACGUUAC | -2.97 ± 0.16 | -1.38 ± 0.17
GCAUAGCAAUAUUACGAACA | -1.61 ± 0.13 | -1.34 ± 0.12
GCAUAGCAAUAUUACGAGUG | -2.77 ± 0.14 | -1.76 ± 0.11
GCAUAGCAAUAUUACGAUUU | -1.27 ± 0.092 | 0.225 ± 0.14
GCAUAGCAAUAUUACGCACC | -1.28 ± 0.21 | 

Sequence | self-splicing fitness (ln) (30 °C) | self-splicing fitness (ln) (37 °C)
GCAUAGCAAUAUUACGCCGG | -3 ± 0.28 | -1.01 ± 0.2
GCAUAGCAAUAUUACGGAAC | -3.61 ± 0.29 | -3.46 ± 0.34
GCAUAGCAAUAUUACGGAGC | -3.59 ± 0.25 | -2.73 ± 0.23
GCAUAGCAAUAUUACGGCAU | -1.21 ± 0.096 | -1.19 ± 0.083
GCAUAGCAAUAUUACGGCUU | -0.36 ± 0.11 | -0.322 ± 0.11
GCAUAGCAAUAUUACGUACG | -1.42 ± 0.076 | -1.14 ± 0.09
GCAUAGCAAUAUUACGUAGC | -4.39 ± 0.26 | -2.15 ± 0.16
GCAUAGCAAUAUUACGUAGG | -2.32 ± 0.11 | -1.31 ± 0.13
GCAUAGCAAUAUUACGUCCG | -1.44 ± 0.081 | -0.899 ± 0.13
GCAUAGCAAUAUUACGUGUA | -2.43 ± 0.13 | -0.881 ± 0.084
GCCAAGCAAUAUUACGAACG | -2.71 ± 0.11 | -1.46 ± 0.13
GCCAAGCAAUAUUACGACAA | -3.73 ± 0.38 | -3.04 ± 0.26
GCCAAGCAAUAUUACGACGA | -1.84 ± 0.15 | -1.02 ± 0.2
GCCAAGCAAUAUUACGAUCC | -1.01 ± 0.14 | 0.392 ± 0.18
GCCAAGCAAUAUUACGCAGC | -2.96 ± 0.2 | -2.53 ± 0.25
GCCAAGCAAUAUUACGCUAG | -3.06 ± 0.15 | -2.25 ± 0.17
GCCAAGCAAUAUUACGCUCA | -0.458 ± 0.093 | 0.0485 ± 0.12
GCCAAGCAAUAUUACGCUGG | -4.4 ± 0.28 | -2.37 ± 0.18
GCCAAGCAAUAUUACGGAUG | -1.24 ± 0.057 | -0.693 ± 0.07
GCCAAGCAAUAUUACGGCCU | -3.86 ± 0.32 | -1.67 ± 0.19
GCCAAGCAAUAUUACGGUCU | -2.26 ± 0.12 | -0.79 ± 0.12
GCCAAGCAAUAUUACGUAGA | -1.98 ± 0.064 | -1.26 ± 0.077
GCCAAGCAAUAUUACGUAGC | -2.49 ± 0.14 | -1.31 ± 0.13
GCCAAGCAAUAUUACGUAUA | -2 ± 0.23 | -0.632 ± 0.15
GCCAAGCAAUAUUACGUCAA | -2.75 ± 0.34 | -1.97 ± 0.22
GCCAAGCAAUAUUACGUGGA | -0.758 ± 0.049 | -0.303 ± 0.052

Sequence | self-splicing fitness (ln) (30 °C) | self-splicing fitness (ln) (37 °C)
GCCAAGCAAUAUUACGUGGC | -3.84 ± 0.2 | -3.04 ± 0.28
GCCAAGCAAUAUUACGUUAU | -2.76 ± 0.14 | -0.784 ± 0.1
GCCAAGCAAUAUUACGUUGG | -3.36 ± 0.27 | -2.6 ± 0.19
GCCCAGCAAUAUUACGAACC | -1.02 ± 0.15 | 0.156 ± 0.15
GCCCAGCAAUAUUACGACAA | -2.72 ± 0.14 | -1.27 ± 0.11
GCCCAGCAAUAUUACGACCG | -2.84 ± 0.18 | -1.55 ± 0.21
GCCCAGCAAUAUUACGAGUA | -0.468 ± 0.14 | -0.671 ± 0.1
GCCCAGCAAUAUUACGAGUG | -1.37 ± 0.076 | -0.365 ± 0.085
GCCCAGCAAUAUUACGAUCG | -3.49 ± 0.12 | -1.44 ± 0.1
GCCCAGCAAUAUUACGCACU | -0.532 ± 0.075 | 0.216 ± 0.12
GCCCAGCAAUAUUACGCAGC | -1.83 ± 0.12 | -1.38 ± 0.13
GCCCAGCAAUAUUACGCCGA | -1.86 ± 0.13 | -1.2 ± 0.12
GCCCAGCAAUAUUACGCGCG | -2.16 ± 0.14 | -0.815 ± 0.13
GCCCAGCAAUAUUACGCGCU | -3.29 ± 0.18 | -2.41 ± 0.2
GCCCAGCAAUAUUACGCUAA | -0.87 ± 0.083 | -0.549 ± 0.09
GCCCAGCAAUAUUACGGAAG | -2.76 ± 0.13 | -1.4 ± 0.11
GCCCAGCAAUAUUACGGAGC | -4.06 ± 0.39 | -2.17 ± 0.34
GCCCAGCAAUAUUACGGCCA | -2.6 ± 0.27 | -0.571 ± 0.18
GCCCAGCAAUAUUACGGCGU | -1.12 ± 0.064 | -0.731 ± 0.089
GCCCAGCAAUAUUACGGGAA | 0.0209 ± 0.051 | 0.313 ± 0.06
GCCCAGCAAUAUUACGGUUU | 0.123 ± 0.05 | 0.185 ± 0.063
GCCCAGCAAUAUUACGUAUC | -0.98 ± 0.08 | -1.18 ± 0.081
GCCCAGCAAUAUUACGUUCU | -1.95 ± 0.079 | -1.18 ± 0.091
GCCCAGCAAUAUUACGUUGA | -1.72 ± 0.11 | -1.25 ± 0.12
